Laboratory results reported in paper doi:10.1101/2024.07.10.601956.

Target: Synthetic Mtln protein (UniProt Q8NCU8)
Assay: mass photometry

## Synthetic Mtln protein (from UniProt Q8NCU8 1-56) (natural protein)
  stoichiometry N: 6
